Test results: paper PMC8449409 (2021)

Biological target: T1, β-catenin (Mus musculus, UniProt Q02248)
T1 chain: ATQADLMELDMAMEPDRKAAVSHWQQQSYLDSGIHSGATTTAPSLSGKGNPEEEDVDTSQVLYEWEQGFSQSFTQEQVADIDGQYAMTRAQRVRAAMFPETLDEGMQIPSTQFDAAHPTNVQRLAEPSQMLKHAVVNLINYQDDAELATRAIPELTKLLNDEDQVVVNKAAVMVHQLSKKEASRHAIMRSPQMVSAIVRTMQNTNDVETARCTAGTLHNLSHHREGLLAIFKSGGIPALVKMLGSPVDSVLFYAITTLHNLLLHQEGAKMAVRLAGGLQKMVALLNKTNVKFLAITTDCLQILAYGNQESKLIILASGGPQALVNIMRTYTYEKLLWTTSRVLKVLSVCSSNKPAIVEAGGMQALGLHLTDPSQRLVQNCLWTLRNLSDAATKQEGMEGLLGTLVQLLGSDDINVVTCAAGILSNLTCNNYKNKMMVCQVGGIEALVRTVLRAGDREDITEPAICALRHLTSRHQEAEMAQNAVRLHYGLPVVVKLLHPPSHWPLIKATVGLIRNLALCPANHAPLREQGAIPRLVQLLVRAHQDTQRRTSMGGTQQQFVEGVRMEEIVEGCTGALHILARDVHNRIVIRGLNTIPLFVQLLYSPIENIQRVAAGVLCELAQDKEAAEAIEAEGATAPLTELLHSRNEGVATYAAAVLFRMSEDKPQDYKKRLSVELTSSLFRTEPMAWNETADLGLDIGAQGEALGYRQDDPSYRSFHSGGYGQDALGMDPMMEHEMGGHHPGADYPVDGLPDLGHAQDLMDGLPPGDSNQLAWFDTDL

B1: E-cadherin core-binding peptide core-binding region (20 aa) (peptide)
chain: DPTAPPYDSLLVFDYEGSGS
Kd: > 1 µM
